Measurements published in the DeepSol protein solubility set.

Assay: soluble on expression in E. coli; label from the status in PepcDB or PDB records

| Sequence | soluble on expression in E. coli |
| --- | --- |
| MAVHTDPFKKYLYKIGNRTSGSDKHIRKFKTFLTISAYSNILVISMIIDQLRIQKNIPDEEFDAIYPFEIRELSERHWTSVFVAKTAADFLCNQRPVKVLDIGSGAGKFCFVGAALHPSSQFHGIDIRENFIQLSNNLKEQYAVANVSFFQQDALEMDLTGYGGIYFFNSFQEKIDPTSVIDHNSKVSVEQYIQYTNHIFNELNKVPAGTKLVTYYSEDFCVPGSFRLLATHFNGELKFYLKEMEPDESDEQLNQQDISEHIDRHTFLSE | not soluble |
| MAVKGLGEVDQKYDGSKLRIGILHARWNRKIIDALVAGAVKRLQEFGVKEENIIIETVPGSFELPYGSKLFVEKQKRLGKPLDAIIPIGVLIKGSTMHFEYICDSTTHQLMKLNFELGIPVIFGVLTCLTDEQAEARAGLIEGKMHNHGEDWGAAAVEMATKFN | soluble |
| MAVKVAINGFGRIGRLAFRRIQEVEGLEVVAVNDLTDDDMLAHLLKYDTMQGRFTGEVEVVDGGFRVNGKEVKSFSEPDASKLPWKDLNIDVVLECTGFYTDKDKAQAHIEAGAKKVLISAPATGDLKTIVFNTNHQELDGSETVVSGASSTTNSLAPVAKVLNDDFGLVEGLMTTIHAYTGDQNTQDAPHRKGDKRRARAAAENIIPNSTGAAKAIGKVIPEIDGKLDGGAQRVPVATGSLTELTVVLEKQDVTVEQVNEAMKNASNESFGYTEDEIVSSDVVGMTYGSLFDATQTRVMSVGDRQLVKVAAWYDNEMSYTAQLVRTLAYLAELSK | soluble |
| MAVKVKKILISQPQPVAGRSPYYDIAQKHGCEVVFRPFIQVESVSAREFRNQKVNILDHSAIIFTARTAIDHFFSLCEELRVTVPETMKYFCVSESVAVYLQKHIVYRKRKIFFGATGKLEDLLTVISKHNKETYFVPLAEEHKHDLLDMLTAKKVSFSPAIMYRTVSNDFGPDEALDHDMILFFSPSGITALLKNFPKFEQGKTKIGAFGPTTAKAVEEAGLRLDLSAPTEQYPSMAMALEDYLNGK | not soluble |
| MAVLGRKSDRAVFDDGPVPRYEAVKQFIRSRIESGEWPPHHRVPSENDIVADLGVSRMTANRALRELASEGAITRVQGVGSFVAAHKGSTALLEVRNIADEIRERGHRHTSRITLLEEEQASTEVAEALGLAAKARVFHSIIVHAEDDVPIQIEDRFVNPAICPNYLEQDFTSMTPNVYLTLVAPITRTEQIVEAVLPKPWECKLLSIGRGEPCLMIRRRTWSEAANVTVAWLTYPGTRYRLEGVSQ | not soluble |
| MAVLSFSFGGEITLKKPPESLKKYYPPASEKFEFLNNMHTMSTAFYAVQLNINDENWEKAKEWAQKLVKTYRETAEMVPEWKDYFDFSKADAYLNAVSSKNVDAVIKTARELGQTCAKCHRDNEVAVKIYYHFPDFHSVKVEDPIEFMEMDLGDFMKKLANSLKATNIYISQGEYEKAKEHGINFVERARAVKETCTKCHTKEAEVEAITGKEYDQALKALENLFNAEKLDTQKVAQNMKKVTVTCYTCHNVHLIPAKIKEALAK | not soluble |
| MAVNGKTLIRRFNDYCPEWLAETGDPVGLHIGTLDKPIENVMVTLDVRPEVVAEAIEKQVDLIIAKHPPIFRPVKRLTTDNFQEKMYADLLKHDIAVYAAHTNMDIIDNGLNDWFCELLGIKQTTFLTKTHTVPYKKLAVFVPIDEAPQMREALGLAGAGSQGDYSKTSYSLIGTGRFTPTQGANPTIGEIGQESVVQEAKIEVIFPETKQEQVLAAMLQAHPYEEPAYDVYTIENQSKEFGLGRVGVLDKPVRFSYFVQQVKEAFQLDGLRVIAKDDTKMIQRVAICGGSGEKFYHDALRKQADVYITGDVYYHTAHDMIAEDLPVIDPGHYIEALCKPKLVELMNQWKQENEWAVSIFESEANTNPFRFK | not soluble |
| MAVSQGVSLKEDLKDLVRKAEEIGRELSGKLKTNQLRKFHGHLTKIWSNYIYKKKDYRDNPEKFNEEILNELHFMKIFLAYQVGRDIEGISELKEILEPLIDEIKTPDEFEKFKKFYDAILAYHKFHSESEKSNRRTARR | not soluble |
| MAVTGQVKWFNNEKGFGFIEVPGENDVFVHFSAIETDGFKSLEEGQKVSFEIEEGNRGPQAKNVIKL | not soluble |
| MAVTQTRDAVIIGGGHNGLVCAFYLAKAGLKVTVCEARGVVGGAAVTEEFHPGFRNSVASYTVSLLNPRVIADMGLRELGLTFLERPISNFLPISDDKYIKLGGGLERTQEEFRKYSRRDAEVLPAYYAMLDEIGDILRDLAQETPPNLGDGLPGLLRALRQGGRLAFLSRQRKRDLLDLFTKSARDVLDGWFESEPVKAAFGFDAVVGNFASPDTPGSAYVLLHHTFGEVNGKKGAWGHAVGGMGAITQAMAKACEAAGVEILLDAPVEAVHIDGGKAAGVQLVDGRQIMAPIVSANVNPALLYKKLVPPSALTPDFRKAVDGYKNGSGTFRMNVALSELPSFTCLPGKETAEHHQSGIVIAPSLDYMDAAYRDAKGQGISKAPIVEMLIPSSLDTSLAPPGQHVASLFCQQFAPELPDGRSWDDAREAAADLIIDTVDQWAPGFKASVLGRMILSPLDLERKFGLIGGDIMHGHMSLDQLWATRPLLGHASHRAPIAGLYMCGAGTHPGGGVSGNPGRNAAREILRDKDFATAVKLSVVGRLEHHHHHH | not soluble |
| MAWVVNKQSTQEELANRFRALVEANEILQIPGAHDAMAALVARNTGFLALYLSGAAYTASKGLPDLGIVTSTEVAERARDLVRATDLPVLVDIDTGFGGVLNVARTAVEMVEAKVAAVQIEDQQLPKKCGHLNGKKLVTTEELVQKIKAIKEVAPSLYIVARTDARGVEGLDEAIERANAYVKAGADAIFPEALQSEEEFRLFNSKVNAPLLANMTEFGKTPYYSAEEFANMGFQMVIYPVTSLRVAAKAYENVFTLIKETGSQKDALSNMQTRSELYETISYHDFEELDTGIAKTVLSEDQ | not soluble |
| MAYHADSADLETKEILTWEGFGIANRELAQQIVDSNYTPDIIVAVARGGLVPAGALSYSMGIKLSDAINVEFYTDVNETLPDPVLLEPLLDTNSIRGKKVLVVDDVADSGRTLDLVLKLLENHGAEVRSAVIYAKSRSIVAPNYIWKRTDEWIVFPWSAEPPVTKA | not soluble |
| MAYIQLEPLNEGFLSRISGLLLCRWTCRHCCQKCYESSCCQSSEDEVEILGPFPAQTPPWLMASRSSDKDGDSVHTASEVPLTPRTNSPDGRRSSSDTSKSTYSLTRRISSLESRRPSSPLIDIKPIEFGVLSAKKEPIQPSVLRRTYNPDDYFRKFEPHLYSLDSNSDDVDSLTDEEILSKYQLGMLHFSTQYDLLHNHLTVRVIEARDLPPPISHDGSRQDMAHSNPYVKICLLPDQKNSKQTGVKRKTQKPVFEERYTFEIPFLEAQRRTLLLTVVDFDKFSRHCVIGKVSVPLCEVDLVKGGHWWKALIPSSQNEVELGELLLSLNYLPSAGRLNVDVIRAKQLLQTDVSQGSDPFVKIQLVHGLKLVKTKKTSFLRGTIDPFYNESFSFKVPQEELENASLVFTVFGHNMKSSNDFIGRIVIGQYSSGPSETNHWRRMLNTHRTAVEQWHSLRSRAECDRVSPASLEVT | soluble |
| MAYTIGVDFGTLSGRAVLVHVQTGEELAAAVKEYRHAVIDTVLPKTGQKLPRDWALQHPADYLEVLETTIPSLLEQTGVDPKDIIGIGIDFTACTILPIDSSGQPLCMLPEYEEEPHSYVKLWKHHAAQKHADRLNQIAEEEGEAFLQRYGGKISSEWMIPKVMQIAEEAPHIYEAADRIIEAADWIVYQLCGSLKRSNCTAGYKAMWSEKAGYPSDDFFEKLNPSMKTITKDKLSGSIHSVGEKAGSLTEKMAKLTGLLPGTAVAVANVDAHVSVPAVGITEPGKMLMIMGTSTCHVLLGEEVHIVPGMCGVVDNGILPGYAGYEAGQSCVGDHFDWFVKTCVPPAYQEEAKEKNIGVHELLSEKANHQAPGESGLLALDWWNGNRSTLVDADLTGMLLGMTLLTKPEEIYRALVEATAYGTRMIIETFKESGVPIEELFAAGGIAEKNPFVMQIYADVTNMDIKISGSPQAPALGSAIFGALAAGKEKGGYDDIKKAAANMGKLKDITYTPNAENAAVYEKLYAEYKELVHYFGKENHVMKRLKTIKNLQFSSAAKK | soluble |
| MAYVTWLLAILHVHKDSFEIAAPSDSYLSAEPGQDVTLTCQLPRTWPVQQVIWEKVQPHQVDILASCNLSQETRYTSKYLRQTRSNCSQGSMKSILIIPNAMAADSGLYRCRSEAITGKNKSFVIRLIITDGE | not soluble |
| MCGRFAQAQTREEYLAYLADEADRNIAYDPQPIGRYNVAPGTKVLLLSERDEQLHLDPVIWGYAPGWWDKAPLINARVATAASSRMFKPLWQHGRAICFADRWFEWKKEGDKKQPYFIHRKDGKPIFMAAIGSTPFERGDEAEGFLIVTSAADKGLVDIHDRRPLALTPETARVWMRQFLEPHSKSITYRVIPALTRPMMRKDTNPCQLEHHHHHH | not soluble |
| MCHSGTFHLTAGESVEWVLTWAPSFEPHPPMPDYTRSLESTLSFWASWVEELPHQRLYDAEVRRSMLVLRALTDLQTGGIVAAPTTSLPEDFGGIRNWDYRYVWLRDSALTIEALVEYGFSQAALQWRTWLLRAIAGDPENLRIMYGLGGERHLPERELQHLRGYENSVPVRVGNGAAEQYQADVVGEVMVALETIRRAGCLEDEFSWGMQKAILDFQEANFDRKDQGIWEMRSEPQYFTHGRAMMWAGFDRGIKAIEEFNLDGPIERWRELRAKLREEIMTNGFNEEIQSFTQCYDNTQVDASLLQLAQIGFIGFDDPKMLSTVARIEQELLDAHGFLHRYHTDGSDGLAGDEYPFLICSFWLVEQYASSNRLDEAKEKMNRILAVQSPLGLLAEEYSTHHGRLAGNYPQAFSHIGLISAARAINFEEARNRLEHHHHHH | soluble |
| MCLAIPSVVIDIFEEDGEKYALAEYKGVKQKAKLALIEGVEIGDYVLIHTGYALEKMSEDEAKLSLDAWEELFDVLDEMDGVKKENSE | not soluble |
| MCLIAFDWQPDAAAGPVFTLIANRDEFFRRTSAPLSWWEDVPGVLAGRDLEAGGTWLGVSRDGRFAALTNYRAPFDIRAGAPTRGKLVSDFLGGPPVAPLDYLGALAEHSAVYNGFNLLVGDWKRRELAWFCNRAAEGETAVAPPVAVSAGVHALSNARLDTPWPKIVRKRAELGTLLTDNPTPSLDELIELMRDPRVADDDALPHTGIPIERERALSAAFIETPEYGTRGTTALRVTMKEGVRLTVDIKERCDDDGSHRTVRPGTFERAFTFDIDATQPRLEHHHHHH | soluble |
| MCSAGGIRRPIQIEEFKTAISGMSDMELAQIKTEIENSINHLQRSNARLGKYIAKLEGADDRLEADDSDDLENIDSGDLALYKDSVRENEIVLNNYNERVDALEQETVYRKTGHGKSKHEVEAKDNTNKGPDVDMDNSNVDVVTPNSIFI | soluble |
| MCTALSPKVRSGPGLSDMHQYSQWLASRHEANLLPMKEDLALWLTNLLGKEITAETFMEKLDNGALLCQLAETMQEKFKESMDANKPTKNLPLKKIPCKTSAPSGSFFARDNTANFLSWCRDLGVDETCLFESEGLVLHKQPREVCLCLLELGRIAARYGVEPPGLIKLEKEIEQEETLSAPSPSPSPSSKSSGKKSTGNLLDDAVKRISEDPPCKCPNKFCVERLSQGRYRVGEKILFIRMLHNKHVMVRVGGGWETFAGYLLKHDPCRMLQISRVDGKTSPIQSKSPTLKDMNPDNYLVVSASYKAKKEIKLEHHHHHH | not soluble |
| MCTARTAEEIFVETIAVKTRILNDRVLLEAARAIGDRLIAGYRAGARVFMCGNGGSAADAQHFAAELTGHLIFDRPPLGAEALHANSSHLTAVANDYDYDTVFARALEGSARPGDTLFAISTSGNSMSVLRAAKTARELGVTVVAMTGESGGQLAEFADFLINVPSRDTGRIQESHIVFIHAISEHVEHALFAPRQ | soluble |
